Ends that are not written are not given here. * marks the point of attachment. Geranylgeranyl = CC(C)=CCC/C(C)=C/CC/C(C)=C/CC/C(C)=C/C*; Farnesyl = CC(C)=CCC/C(C)=C/CC/C(C)=C/C*
What was measured:
[1] = molecular target: T1, Rat protein geranylgeranyl transferase type I (GGTase-I) (rat, UniProt Q04631 1-377; P53610 1-377); assay: X-ray crystal structure, ternary Complex 2 with 3'AzaGGPP
Experimental: (§1) GGTase-I crystals were grown at 17° C. in hanging drops using equal volumes of protein and reservoir solution (1.3 M NH₄SO₄, 175 mM Na₃ citrate pH 6.5, 20 mM DTT and 100 mM MES, pH 6.3). Micro-seeds were added after equilibration to control nucleation. Seeding solution was produced by crushing GGTase-I crystals in stabilizing solution (1.5 M NH₄SO₄, 175 mM Na₃ citrate pH 6.5, 5 mM ZnCl₂, 20 mM DTT and 100 mM MES, pH 6.3). […] For data collection crystals were transferred stepwise into cryosolvent (30% (w:v) sucrose, 1.8 M NH₄SO₄, 5 mM ZnCl₂, 10 mM TCEP, and 100 mM MES, pH 6.3) before flash-freezing in liquid nitrogen. Derivative crystals were soaked 18 hours in cryosolvent containing 1 mM Di-m-iodobis (ethylenediamine) diplatinum (II) nitrate (PIP) and no TCEP.

[2] = molecular target: T1, Rat protein geranylgeranyl transferase …; assay: X-ray crystal structure, ternary complex with 3'azaGGPP
Experimental: Rat GGTase-I was expressed and purified as previously described herein (see also SAtrickland et al., 1999). […] GGTase-I product co-crystals were first transferred stepwise from their mother liquor (1.3 M NH₄SO₄, 175 mM Na₃-citrate, 100 mM MES pH 6.3, and 20 mM DTT) to cyro-solvent (30% (w:v) sucrose, 900 mM Na₃-citrate, 100 mM MES pH 6.3, 10 mM TCEP, and 1 μM ZnCl₂) supplemented with 0.2 mM 3′azaGGPP and 0.2 mM of the appropriate Ca₁a₂X peptide (Sigma-Genosys, >95% purity). All crystals were soaked for a week to allow for ternary complex formation and flash-cooled in liquid nitrogen.
(§2) Diffraction data were collected at 100 K with an R-Axis IV image plate system (Molecular Structure Corp., The Woodlands, Tex., United States of America) mounted on a Rigaku RU-H3R rotating anode generator with double mirror optics (Molecular Structure Corp.). Diffraction data were also collected at the BioCARS and SER-CAT beamlines at the Advanced Photon Source, Argonne National Labs and at the X25 beamline at the National Synchrotron Light Source, Brookhaven National Labs (BNLNSLS).

[3] = molecular target: T2, Rat protein farnesyltransferase (rFTase) (rat, UniProt Q04631 1-377; Q02293 1-437); assay: X-ray crystal structure, ternary complex with FPT-II
Source text: (§3) The FTase:FPTII: Ca₁a₂X complexes were transferred to cryoprotection solutions and flash-cooled in liquid nitrogen.
as §2
(§4) The structures were determined by rigid body refinement using either rat FTase (Brookhaven Protein Data Bank code 1 D8D) or human FTase (Brookhaven Protein Data Bank code 1JCQ) as the initial model with ligands removed. […] After rigid body refinement, FPT-II and the Ca₁a₂X peptides were fit into σA weighted Fₒ-Fc maps and the complexes refined against all data with |F|≧0 by iterative cycles of simulated annealing, minimization, individual B-factor refinement, and model building. Refinements were carried out using CNS v1.0 (Brünger et al., 1998) and models built using O (Jones et al., 1991).

[4] = molecular target: Human protein farnesyltransferase (hFTase) (human, UniProt P49354 1-379; P49356 1-437); assay: as above
Source text: as §3, §2, §4

[5] = molecular target: T2, Rat protein farnesyltransferase (rFTase); assay: X-ray crystal structure, FTase complexed with FPT-II and peptide (FIG. 16)
Source text: as §3, §2, §4

[6] = molecular target: T1, Rat protein geranylgeranyl transferase …; assay: X-ray crystal structure, product Complex 3
Experimental: as §1

[7] = molecular target: T2, Rat protein farnesyltransferase (rFTase); assay: co-crystal of the product complex

B1: Ca1a2X peptide KKKSKTKCVIL (SEQ ID NO: 1) (peptide)
peptide: KKKSKTKCVIL
notes: Synthetic, Sigma-Genosys, >95% purity; also called Rap2b chimera peptide; CVIL peptide
B1: binds [1].

B2: K-Ras4B peptide KKKSKTKCVIM (SEQ ID NO: 8) (peptide)
peptide: KKKSKTKCVIM
notes: Synthetic, Sigma-Genosys, >95% purity; also called K-Ras4B (CVIM)
B2: binds [2].

B3: TC21 peptide KKSKTKCVIF (SEQ ID NO: 9) (peptide)
peptide: KKSKTKCVIF
notes: Synthetic, Sigma-Genosys, >95% purity; also called TC21 (CVIF)
B3: binds [2]; binds [3].

B4: Cdc42 splice isoform 2 peptide RRCVLL (SEQ ID NO: 14) (peptide)
peptide: RRCVLL
notes: Synthetic, Sigma-Genosys, >95% purity; also called Cdc42-II
B4: binds [2].

B5: heterotrimeric G protein γ2 subunit peptide FREKKFFCAIL (SEQ ID NO: 13) (peptide)
peptide: FREKKFFCAIL
notes: Synthetic, Sigma-Genosys, >95% purity; also called y2
B5: binds [2].

B6: RhoB peptide GCINCCKVL (SEQ ID NO: 11) (peptide)
peptide: GCINCCKVL
notes: Synthetic, Sigma-Genosys, >95% purity
B6: binds [2].

B7: RhoB peptide KKSKTKCKVL (SEQ ID NO: 12) (peptide)
peptide: KKSKTKCKVL
notes: as for B6
B7: binds [2].

B8: Rap2a peptide DDPTASACNIQ (SEQ ID NO: 10) (peptide)
peptide: DDPTASACNIQ
notes: Synthetic, Sigma-Genosys, >95% purity; also called Rap2a (CNIQ)
B8: binds [4].

B9: H-Ras peptide GCVLS (SEQ ID NO: 6) (peptide)
peptide: GCVLS
notes: Synthetic, Sigma-Genosys, >95% purity; also called H-Ras (CVLS)
B9: binds [5].

B10: geranylgeranylated-KKKSKTKCVIL product (SEQ ID NO: 1) (peptide)
peptide: KKKSKTKC(Geranylgeranyl)VIL
notes: also called prenyl-peptide product; prenylated product
B10: binds [6].

B11: farnesylated-KKKSKTKCVIM product (SEQ ID NO: 8) (peptide)
peptide: KKKSKTKC(Farnesyl)VIM
notes: Product co-crystal with FTase, used as starting material for the TC21 soak; also called farnesylated product
B11: binds [7].
